T1: human L-asparaginase (hASNase3), cleaved state (alpha- and beta-chains) (human, UniProt Q7L266 1-167; Q7L266 168-308)
T1 sequence (looked up) 1: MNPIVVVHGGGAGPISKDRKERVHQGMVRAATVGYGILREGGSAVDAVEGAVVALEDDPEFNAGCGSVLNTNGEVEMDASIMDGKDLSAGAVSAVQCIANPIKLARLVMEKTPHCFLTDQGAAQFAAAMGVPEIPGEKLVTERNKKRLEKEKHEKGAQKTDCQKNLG
T1 sequence (looked up) 2: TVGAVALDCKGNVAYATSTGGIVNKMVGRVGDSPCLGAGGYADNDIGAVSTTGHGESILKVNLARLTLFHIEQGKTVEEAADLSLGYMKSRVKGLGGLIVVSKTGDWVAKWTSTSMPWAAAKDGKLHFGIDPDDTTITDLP

T2: alpha-chain of cleaved human L-asparaginase (hASNase3) (human, UniProt Q7L266 1-167)
T2 sequence (looked up): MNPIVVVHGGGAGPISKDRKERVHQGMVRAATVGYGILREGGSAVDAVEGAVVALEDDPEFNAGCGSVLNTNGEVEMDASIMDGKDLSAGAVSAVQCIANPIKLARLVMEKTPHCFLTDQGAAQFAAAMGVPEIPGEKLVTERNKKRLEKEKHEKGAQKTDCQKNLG


Tests used:
[1] = target: T1, human L-asparaginase (hASNase3), …; test: crystal structure
[2] = target: T2, alpha-chain of cleaved human …; test: crystal structure

binding result [1]	binding result [2]	Binder
binds	–	human L-asparaginase (hASNase3), uncleaved state (enzyme, UniProt Q7L266 1-308, looked up) MNPIVVVHGGGAGPISKDRKERVHQGMVRAATVGYGILREGGSAVDAVEGAVVALEDDPEFNAGCGSVLNTNGEVEMDASIMDGKDLSAGAVSAVQCIANPIKLARLVMEKTPHCFLTDQGAAQFAAAMGVPEIPGEKLVTERNKKRLEKEKHEKGAQKTDCQKNLGTVGAVALDCKGNVAYATSTGGIVNKMVGRVGDSPCLGAGGYADNDIGAVSTTGHGESILKVNLARLTLFHIEQGKTVEEAADLSLGYMKSRVKGLGGLIVVSKTGDWVAKWTSTSMPWAAAKDGKLHFGIDPDDTTITDLP
–	binds	beta-chain of cleaved human L-asparaginase (hASNase3) (domain or fragment, UniProt Q7L266 168-308, looked up) TVGAVALDCKGNVAYATSTGGIVNKMVGRVGDSPCLGAGGYADNDIGAVSTTGHGESILKVNLARLTLFHIEQGKTVEEAADLSLGYMKSRVKGLGGLIVVSKTGDWVAKWTSTSMPWAAAKDGKLHFGIDPDDTTITDLP

From PMC3448794 (Biochemistry, 2012)
